In publication PMC3987992:

How the values were obtained:
Assay in all cases: BLI
[1] = biological target: CR9114 Fab (human)
[2] = biological target: PGT135 Fab (human)
[3] = biological target: a panel of eight affinity-matured monoclonal antibodies against the same HIV-1 gp120 antigen but with different epitopes
[4] = biological target: four VH/VL combinations (the same germline light chain paired with three different heavy chains)
[5] = biological target: the same heavy chain paired with four different light chains

B1: recombinant Protein M TD, residues 74-468 (domain or fragment)
chain: SLSLNDGSYQSEIDLSGGANFREKFRNFANELSEAITNSPKGLDRPVPKTEISGLIKTGDNFITPSFKAGYYDHVASDGSLLSYYQSTEYFNNRVLMPILQTTNGTLMANNRGYDDVFRQVPSFSGWSNTKATTVSTSNNLTYDKWTYFAAKGSPLYDSYPNHFFEDVKTLAIDAKDISALKTTIDSEKPTYLIIRGLSGNGSQLNELQLPESVKKVSLYGDYTGVNVAKQIFANVVELEFYSTSKANSFGFNPLVLGSKTNVIYDLFASKPFTHIDLTQVTLQNSDNSAIDANKLKQAVGDIYNYRRFERQFQGYFAGGYIDKYLVKNVNTNKDSDDDLVYRSLKELNLHLEEAYREGDNTYYRVNENYYPGASIYENERASRDSEFQNEILKR
B1 gave a Kd [1] of 1.9 nM, a Kd [2] of 3.7 nM and a Kd [3] of 0.7 to 3.8 nM. It also gave a Kd [4] of 2.1 to 4.8 nM and a Kd [5] of 1.8 to 2.3 nM.
